The record followed here is patent publication US20240342305A1 (published 2024).

The target in experiment [1] is T1, recombinant human GPC1 (rhGPC1) (human, UniProt P35052 24-530, limits assumed).
T1 sequence (looked up): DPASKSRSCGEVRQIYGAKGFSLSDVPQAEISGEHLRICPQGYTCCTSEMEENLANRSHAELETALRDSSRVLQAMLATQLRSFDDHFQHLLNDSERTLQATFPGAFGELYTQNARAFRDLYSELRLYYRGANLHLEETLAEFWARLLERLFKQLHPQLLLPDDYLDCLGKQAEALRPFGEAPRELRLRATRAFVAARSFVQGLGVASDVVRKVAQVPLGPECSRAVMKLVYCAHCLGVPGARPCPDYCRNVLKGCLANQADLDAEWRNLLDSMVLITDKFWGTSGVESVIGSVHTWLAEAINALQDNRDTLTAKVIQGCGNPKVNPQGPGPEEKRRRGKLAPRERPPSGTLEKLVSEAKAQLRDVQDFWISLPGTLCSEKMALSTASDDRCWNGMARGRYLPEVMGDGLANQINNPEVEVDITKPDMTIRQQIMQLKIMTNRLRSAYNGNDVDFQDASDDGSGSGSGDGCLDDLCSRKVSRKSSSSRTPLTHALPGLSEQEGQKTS
The experiment can be described thus: ELISA, antigen coated 100 ng/well, HRP anti-human Fc detection. The method, then:
(§1) In order to analyze the binding specificity of P7D4 series antibody to GPC3 protein, binding activity of P7D4 series single chain antibody to human GPC family members, including recombinant human GPC1 (rhGPC1), GPC2 (rhGPC2), GPC3 (rhGPC3), GPC5 (rhGPC5) and GPC6 (rhGPC6) (purchased from Andy Biosciences (Shanghai) Co., Ltd.) was detected by ELISA, respectively.
(§2) For this purpose, the above 5 antigens were diluted with 0.1 M NaHCO₃ (pH 9.6) coating solution and each well was coated with 100 ng at 50 μl/well overnight at 4° C. and blocked with 2% (w/v) BSA in PBST for 2 hours at room temperature. The plate was then rinsed for three times with PBST and PBST was removed. Subsequently, 100 ng of each antibody protein in PBST was added to each well plate, and the assay for each sample was performed in duplecate wells. After incubated for 2 hours at 37° C., the plates were rinsed for three times with PBST followed by addition of 100 μl/well HRP-labeled rabbit anti-human Fc antibody (purchased from Shanghai Rui Jin Biotechnology Co., Ltd.) diluted at 1:20000 and incubated at 37° C. for 1 hour. For detection, wells were rinsed for three times with PBST followed by three times with PBS and finally with TMB for development for 10 min. The chromogenic reaction was stopped with 50 μl of 2 M H₂SO₄ per well, and extinction value was measured at 450 nm with enzyme-linked immunodetector (Bio-Rad).
On the technique in general: An ELISA detects its analyte on a solid surface through an enzyme-linked reagent.

Experiment [2] addresses T2, recombinant human GPC6 (rhGPC6) (human, UniProt Q9Y625 24-529, limits assumed).
T2 sequence (looked up): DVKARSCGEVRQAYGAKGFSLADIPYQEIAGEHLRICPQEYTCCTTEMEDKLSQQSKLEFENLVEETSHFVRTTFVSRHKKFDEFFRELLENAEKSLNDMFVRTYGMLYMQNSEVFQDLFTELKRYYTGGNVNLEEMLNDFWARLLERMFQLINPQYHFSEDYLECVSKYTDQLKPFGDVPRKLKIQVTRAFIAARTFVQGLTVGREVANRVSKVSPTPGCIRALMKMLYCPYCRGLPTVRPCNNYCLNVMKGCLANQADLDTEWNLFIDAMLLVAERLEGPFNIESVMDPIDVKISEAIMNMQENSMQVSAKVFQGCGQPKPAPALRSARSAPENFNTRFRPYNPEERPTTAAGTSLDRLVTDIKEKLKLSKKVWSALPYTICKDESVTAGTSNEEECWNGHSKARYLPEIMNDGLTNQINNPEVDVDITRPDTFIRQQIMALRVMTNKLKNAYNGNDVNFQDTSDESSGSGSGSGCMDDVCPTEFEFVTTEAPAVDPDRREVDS
The description is as above. The method, then:
as §1, §2

Experiment [3] has as its target T3, recombinant human GPC5 (rhGPC5) (human, UniProt P78333 25-551, limits assumed).
T3 sequence (looked up): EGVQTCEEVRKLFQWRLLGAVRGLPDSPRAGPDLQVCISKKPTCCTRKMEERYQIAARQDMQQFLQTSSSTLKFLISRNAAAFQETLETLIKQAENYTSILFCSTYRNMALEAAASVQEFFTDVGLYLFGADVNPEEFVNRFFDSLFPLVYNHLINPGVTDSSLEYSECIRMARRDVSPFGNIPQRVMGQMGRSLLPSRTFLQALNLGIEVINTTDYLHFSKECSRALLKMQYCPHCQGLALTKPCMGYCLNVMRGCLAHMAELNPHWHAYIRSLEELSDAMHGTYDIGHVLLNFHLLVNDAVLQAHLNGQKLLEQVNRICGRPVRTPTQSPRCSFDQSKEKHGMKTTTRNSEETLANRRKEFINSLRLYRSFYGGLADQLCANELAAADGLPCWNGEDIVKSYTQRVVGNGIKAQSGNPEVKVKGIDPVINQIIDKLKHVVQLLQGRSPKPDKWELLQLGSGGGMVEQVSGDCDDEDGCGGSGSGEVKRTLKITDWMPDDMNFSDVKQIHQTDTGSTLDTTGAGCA
The experiment is described as above. The method, then:
as §1, §2

Experiment [4] has as its target T4, recombinant human GPC2 (rhGPC2) (human, UniProt Q8N158 24-554, limits assumed).
T4 sequence (looked up): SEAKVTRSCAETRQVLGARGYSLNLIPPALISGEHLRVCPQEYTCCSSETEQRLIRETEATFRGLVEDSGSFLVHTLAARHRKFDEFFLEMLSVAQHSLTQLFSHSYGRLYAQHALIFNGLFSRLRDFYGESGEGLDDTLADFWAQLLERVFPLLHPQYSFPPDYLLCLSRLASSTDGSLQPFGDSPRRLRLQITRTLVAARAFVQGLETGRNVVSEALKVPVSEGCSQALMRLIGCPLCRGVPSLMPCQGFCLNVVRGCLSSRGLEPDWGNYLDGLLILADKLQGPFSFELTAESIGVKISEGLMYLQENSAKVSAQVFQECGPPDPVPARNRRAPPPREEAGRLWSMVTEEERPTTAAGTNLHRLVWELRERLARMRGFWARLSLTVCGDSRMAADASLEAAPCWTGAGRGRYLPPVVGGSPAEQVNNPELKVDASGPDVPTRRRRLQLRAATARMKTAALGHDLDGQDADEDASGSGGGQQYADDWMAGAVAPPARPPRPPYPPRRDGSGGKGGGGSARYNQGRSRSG
The description is as above. The method, then: as §1, §2

For experiment [5], the target named is T5, human GPC3 recombinant protein (purchased from Shanghai Rui Jin Biotechnology Co., Ltd.) (human, UniProt P51654 25-559, limits assumed).
T5 construct: Bought recombinant protein; also called huGPC3; antigen GPC3
The experiment can be described thus: SPR Biacore T200, antibody captured by anti-human IgG (Fc), GPC3 as analyte, single-cycle kinetics, 25 °C. The method, then: To quantitatively analyze the binding of P7D4 series antibodies to GPC3, the affinity and kinetic parameters of P7D4 series single-chain antibodies were measured by capture method using Biacore T200 system (from GE). An anti-human IgG (Fc) antibody (purchased from GE) was coupled to carboxymethyl dextran surface of sensor chip CM5 through primary amino with NHS/EDC coupling according to the manufacturer's instructions. Measurements were performed in 1×HBS-EP+working buffer at 25° C., 30 μl/min, and regeneration condition was 3 M MgCl₂, 10 μl/min for 30 seconds. In each round of the testing cycle, the antibody to be tested is firstly captured onto the chip. GPC3 of a certain concentration flowed over the chip surface. The interaction between human GPC3 and the captured antibody caused the change of the molecular concentration on the surface of the sensor chip which was measured according to changes in SPR Signal and expressed in resonance units (RU). Time vs resonance unit (RU) was plotted. The resulting sensorgram documents the entire reaction including the binding and dissociation processes (FIG. 4). In all single-cycle kinetics, GPC3 concentrations were 5 nM, 10 nM, 20 nM, 40 nM and 80 nM, respectively. The resulting curves were evaluated using Biacore T200 evaluation software and the affinity KD values were calculated.
On the technique in general: Surface plasmon resonance follows binding to a sensor surface in real time, without labels.

Where a chain is given by its changes, count along the chain named.

B1: P7D4 mutant single chain antibody am4 (scFv, not shown: a dimerising Fc or GST)
scFv: QVQLQESGGGLVQPGRSLRLSCAASGFTFSTYAMTWVRQAPGKGLEWVSSISSSGESTYYADSVKGRFTISRDNSKNTLYLQMNSLRAEDTAVYYCAKDRRGSHADAFDVWGQGTLVTVSSGGGGSGGGGSGGGGSQSALTQPPSASGSPGQSVTISCTGTSSDVGGYNYVSWYQQYPGKAPKLLIYGNSNRPSGVPDRFSGSKSGTSASLAITGLQAEDGADYYCQSYDSSLRVVFGGGTKVTVLG
Turning to B1, the binding result in experiment [1], in experiment [2], in experiment [3] and in experiment [4] was “no binding (tested: 100 ng of each antibody protein per well)” in each case. The Kd (usually the equilibrium constant for the complex coming apart) in experiment [5] is 0.0756 nM. For the same molecule, the koff – broadly, a measure of how fast the partners let go of each other – in experiment [5] was found to be 4.08e-05 s⁻¹. Further, in experiment [5], the kon (usually the rate constant with which the complex forms) came to 539000 M⁻¹ s⁻¹.

B2: P7D4 mutant single chain antibody am14 (scFv, not shown: a dimerising Fc or GST)
scFv: B1 scFv with T35A, S50E, E56S, S57R
In the case of B2, the binding result in experiment [1], in experiment [2], in experiment [3] and in experiment [4] was “no binding (tested: 100 ng of each antibody protein per well)” throughout. The Kd in experiment [5] was 0.0646 nM. The koff in experiment [5] came out at 4.43e-05 s⁻¹. For the same molecule, in experiment [5], the kon amounted to 673000 M⁻¹ s⁻¹.

B3: P7D4 mutant single chain antibody T2-23 (scFv, not shown: a dimerising Fc or GST)
scFv: B1 scFv with T31S, T35H, S50A, E56R, K65E, F108L, D109N
Regarding B3, the binding result in experiment [1], in experiment [2], in experiment [3] and in experiment [4] was “no binding (tested: 100 ng of each antibody protein per well)” each time.

B4: P7D4 mutant single chain antibody am20 (scFv, not shown: a dimerising Fc or GST)
scFv: B1 scFv with T35N, S50A, S53M
For the molecule B4, the binding result in experiment [1], in experiment [2], in experiment [3] and in experiment [4] was “no binding (tested: 100 ng of each antibody protein per well)” in each case. In experiment [5], the Kd is 0.306 nM. In addition, the koff in experiment [5] came to 6.47e-05 s⁻¹. Further, the kon in experiment [5] was 212000 M⁻¹ s⁻¹.

B5: P7D4 mutant single chain antibody am35 (scFv, not shown: a dimerising Fc or GST)
scFv: QVQLQESGGGLVQPGRSLRLSCAASGFTFSSYAMHWVRQAPGKGLEWVSAISSSGGSTYYADSVKGRFTISRDNSKNTLYLQMNSLRAEDTAVYYCAKDRRGSHADAFDVWGQGTLVTVSSGGGGSGGGGSGGGGSQSALTQPPSASGSPGQSVTISCTGTSSDVGHKFPVSWYQQYPGKAPKLLIYKNLLRPSGVPDRFSGSKSGTSASLAITGLQAEDGADYYCQSYDSSLRVVFGGGTKVTVLG
In the case of B5, the binding result in experiment [1], in experiment [2], in experiment [3] and in experiment [4] was “no binding (tested: 100 ng of each antibody protein per well)” each time. Further, in experiment [5], the Kd turned out to be 0.0714 nM. Also, the koff in experiment [5] was found to be 5.2e-05 s⁻¹. Besides, the kon in experiment [5] amounted to 738000 M⁻¹ s⁻¹.

B6: P7D4 mutant single chain antibody am42 (scFv, not shown: a dimerising Fc or GST)
scFv: B5 scFv with H167L, K168M, F169H, P170N, N189S, L190S, L191S
Turning to B6, the binding result in experiment [1], in experiment [2], in experiment [3] and in experiment [4] was “no binding (tested: 100 ng of each antibody protein per well)” each time. Also, the Kd in experiment [5] was found to be 0.0821 nM. Besides, in experiment [5], the koff is 6.7e-05 s⁻¹. In addition, the kon in experiment [5] is 816000 M⁻¹ s⁻¹.
